Assays:
[1] = target: T1, CEACAM3 on transfected HeLa cells (human, UniProt P40198 35-252); experiment: flow cytometry, HeLa-CEACAM3 transfectants, % staining, stacked bars
T1 construct: whole, on cells; also called HeLa-CEACAM3; HeLa C3
T1 sequence (looked up): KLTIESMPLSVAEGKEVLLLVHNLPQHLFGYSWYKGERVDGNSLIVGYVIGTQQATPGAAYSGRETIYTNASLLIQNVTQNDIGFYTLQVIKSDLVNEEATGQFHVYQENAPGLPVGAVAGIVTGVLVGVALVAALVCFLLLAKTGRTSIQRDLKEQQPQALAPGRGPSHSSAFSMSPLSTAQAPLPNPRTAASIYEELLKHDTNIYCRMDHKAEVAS
From the text: (§1) FIG. 11 illustrates the binding selectivity of different affinity-matured CEACAM1 antibodies. […] HELA cells were transfected with vector alone (HeLa-Neo) or vectors expressing CEACAM1, CEACAM3, CEACAM5, or CEACAM6, respectively, and stained with the indicated antibodies. […] MOPC=mouse IgG1 control antibody. Mouse antibodies as positive control for transfected CEACAM isoforms: Col-1=CEACAM3 and CEACAM5 antibody. 9A6=CEACAM6 antibody. T84.1=CEACAM cross-reactive antibody and T84.66=CEACAM5 antibody. Only 2nd FITC=No primary antibody, only secondary FITC conjugated antibody. […] Data for affinity-matured antibodies 9B3_8H3/Vκ8 S29A, 8H3_9B3/CP08_E05, and 8H3_9C2/CPO08_F05, as well as data for CEACAM8 antibody 80H3 were omitted from the FIG. due to an unusually high background signal.

[2] = target: T2, CEACAM6 on transfected HeLa cells (human, UniProt P40199 35-320); experiment: flow cytometry, HeLa-CEACAM6 transfectants, % staining, stacked bars
T2 construct: whole, on cells; also called HeLa-CEACAM6; HeLa C6
T2 sequence (looked up): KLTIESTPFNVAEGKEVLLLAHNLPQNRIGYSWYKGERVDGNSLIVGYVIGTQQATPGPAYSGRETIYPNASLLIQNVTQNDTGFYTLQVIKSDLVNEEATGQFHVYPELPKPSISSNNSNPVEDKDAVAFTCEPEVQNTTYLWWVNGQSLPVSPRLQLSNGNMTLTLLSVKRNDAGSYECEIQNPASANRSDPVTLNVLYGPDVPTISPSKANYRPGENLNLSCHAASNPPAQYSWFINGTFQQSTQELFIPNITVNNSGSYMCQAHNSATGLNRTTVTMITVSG
From the text: as §1

[3] = target: T3, CEACAM5 on transfected HeLa cells (human, UniProt P06731 35-685); experiment: flow cytometry, HeLa-CEACAM5 transfectants, % staining, stacked bars
T3 construct: whole, on cells; also called HeLa-CEACAM5; HeLa C5
T3 sequence (looked up): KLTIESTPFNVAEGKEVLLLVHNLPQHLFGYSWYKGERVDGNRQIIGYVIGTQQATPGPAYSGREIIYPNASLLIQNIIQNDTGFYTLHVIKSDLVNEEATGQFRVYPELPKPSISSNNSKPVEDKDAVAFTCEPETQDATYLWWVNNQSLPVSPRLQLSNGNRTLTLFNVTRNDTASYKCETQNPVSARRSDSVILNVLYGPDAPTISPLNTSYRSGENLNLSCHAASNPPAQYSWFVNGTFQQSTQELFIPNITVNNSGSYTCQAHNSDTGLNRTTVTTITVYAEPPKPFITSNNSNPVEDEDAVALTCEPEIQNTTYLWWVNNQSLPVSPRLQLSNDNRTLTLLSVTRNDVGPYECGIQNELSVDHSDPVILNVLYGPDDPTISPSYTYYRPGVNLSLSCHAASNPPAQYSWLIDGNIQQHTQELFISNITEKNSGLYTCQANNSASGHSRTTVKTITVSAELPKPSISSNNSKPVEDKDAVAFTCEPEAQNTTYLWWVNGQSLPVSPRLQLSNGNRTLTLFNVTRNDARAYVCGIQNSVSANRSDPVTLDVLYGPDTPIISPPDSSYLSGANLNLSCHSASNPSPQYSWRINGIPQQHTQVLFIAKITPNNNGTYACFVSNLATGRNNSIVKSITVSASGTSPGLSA
From the text: as §1

[4] = target: T4, CEACAM5 (recombinant protein) (human, UniProt P06731 35-685); experiment: SPR single-cycle kinetics, antibody captured on Protein A, CEACAM-5 injected at three rising concentrations [Cont.]
T4 construct: construct not described
T4 sequence (looked up): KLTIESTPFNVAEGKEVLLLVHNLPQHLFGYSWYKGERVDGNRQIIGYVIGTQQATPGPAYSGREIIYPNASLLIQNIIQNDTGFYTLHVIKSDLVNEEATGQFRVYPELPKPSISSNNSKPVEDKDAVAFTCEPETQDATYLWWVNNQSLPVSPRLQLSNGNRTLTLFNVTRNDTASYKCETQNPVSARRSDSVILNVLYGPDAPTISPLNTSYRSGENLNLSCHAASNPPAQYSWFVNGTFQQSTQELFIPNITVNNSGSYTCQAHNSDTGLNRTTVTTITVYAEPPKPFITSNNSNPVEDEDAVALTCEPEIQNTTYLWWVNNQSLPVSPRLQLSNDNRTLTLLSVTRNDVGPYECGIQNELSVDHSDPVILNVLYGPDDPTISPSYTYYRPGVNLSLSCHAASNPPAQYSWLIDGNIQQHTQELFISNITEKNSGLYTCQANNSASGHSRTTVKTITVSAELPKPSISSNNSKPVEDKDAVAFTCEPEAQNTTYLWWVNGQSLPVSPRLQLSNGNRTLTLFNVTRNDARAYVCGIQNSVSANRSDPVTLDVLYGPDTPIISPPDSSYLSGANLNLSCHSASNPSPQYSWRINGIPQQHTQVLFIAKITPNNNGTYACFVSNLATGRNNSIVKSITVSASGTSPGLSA
Experimental: In order to assess the binding of the humanized, affinity matured reformatted lead IgGs, single-cycle kinetics analysis was performed on crude supernatants using a Biacore T200 running Biacore T200 Control Software V2.0.1 and Biacore T200 Evaluation Software V3.0. Antibodies were diluted in HBS-P+ to a final concentration of 0.5 μg/ml. At the start of each cycle, antibodies were loaded onto Fc2, Fc3 and Fc4 of the Protein A chip. IgGs were captured at a flow rate of 10 μl/min to give an immobilisation level (RL) of ˜100 RU (a level calculated to obtain a Rₘₐₓ of ˜50-150 RU once the analyte is bound). The surface was then allowed to stabilize. Single-cycle kinetics data was obtained with CEACAM1 as the analyte at a flow rate of 80 μl/min to minimize any potential mass transfer effects. Multiple repeats with the parent (VH1/Vκ8 S29A) antibody were performed to check the stability of the surface and analyte over the kinetic cycles. The signal from the reference channel Fc1 (no antibody) was subtracted from that of Fc2, Fc3 and Fc4 to correct for differences in non-specific binding to the reference surface. […] The association phase for the three injections of increasing concentrations of CEACAM1 was monitored for 80 seconds each time and a single dissociation phase was measured for 150 seconds following the last injection of CEACAM1. […]

Binder | binding result [1] | binding result [2] | binding result [3] | binding result [4]
VH1/Vκ8 S29A (antibody, IgG4, V domains shown, IgG4 (S241P), kappa; also called Parent; Parent (VH1/Vκ8 S29A)) VH: EVQLLESGGGLVQPGGSLRLSCAASGFIFSSHGMSWVRQAPGKGLEWVATISSGGTYTYYPDSVKGRFTISRDNSKNTLYLQMNSLKAEDTAMYYCARHDFDYDAAWFAYWGQGTLVTVSS VL: EIVLTQSPATLSLSPGERATLSCRANSAVSYMYWYQQKPGQAPRPWIYLTSNRATGVPARFSGSGSGTDYTLTISSLEPEDFAVYYCQQWSSNPPTFGQGTKLEIK | no binding | no binding | no binding | –
CP08H03/CP08F05 (antibody, V domains shown, IgG4 (S241P), kappa) VH: EVQLLESGGGLVQPGGSLRLSCAASGFIFSSHGMSWVRQAPGKGLEWVATISSGGTYTYYPDSVKGRFTISRDNSKNTLYLQMNSLKAEDTAMYYCARHDFDYFPYWFAHWGQGTLVTVSS VL: EIVLTQSPATLSLSPGERATLSCRANSAVSYMYWYQQKPGQAPRPWIYLTSNRATGVPARFSGSGSGTDYTLTISSLEPEDFAVYYCQQWTSNPPTFGQGTKLEIK | no binding | no binding | no binding | no binding
CP08H03/Vκ8 S29A (antibody, IgG4, V domains shown, IgG4 (S241P), kappa; also called CP08_H03/Parent VL; CP08_H03/Parental) VH: EVQLLESGGGLVQPGGSLRLSCAASGFIFSSHGMSWVRQAPGKGLEWVATISSGGTYTYYPDSVKGRFTISRDNSKNTLYLQMNSLKAEDTAMYYCARHDFDYFPYWFAHWGQGTLVTVSS VL: EIVLTQSPATLSLSPGERATLSCRANSAVSYMYWYQQKPGQAPRPWIYLTSNRATGVPARFSGSGSGTDYTLTISSLEPEDFAVYYCQQWSSNPPTFGQGTKLEIK | – | – | – | no binding
